Reference: the supplement of paper PMC7125110
± gives the standard error. For some of these results: Variants at the floor of the assay were thinned out.

B1: glmS ribozyme (parent)
chain: AUAAAAGCGCCAGAACUACAGAAAUGUAGUUGACGAGGAGGAGGUUUAUCGAAUUUUCGGCGGAUGCCUCCAAA

Tests used:
Details in all cases: with glucosamine-6-phosphate
glucosamine-6-phosphate [1] = variants of: B1; assay: kcat; higher = faster cleavage; RNA array
In short: (§1)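 The measurements used barcoded ribozyme variants on sequenced MiSeq chips, transcribed in situ by E. coli RNA polymerase and tracked at 37 °C with a hybridised Cy3 probe. Glucosamine-6-phosphate, 40 μM to 10 mM in HEPES/KCl/Mg(OAc)2 buffer, was flowed in while tiles were imaged over ~14 h. Baseline-normalised signals, also normalised to non-cleaving reference variants, gave per-tile medians that were fit to one- or two-exponential decays for kobs. kcat and KM resulted from weighted Michaelis–Menten fits across concentrations.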

glucosamine-6-phosphate [2] = variants of: B1; assay: KM; higher = weaker cofactor use; RNA array
In short: as §1

glucosamine-6-phosphate [3] = variants of: B1; assay: self-cleavage kobs at 640 uM GlcN6P; higher = faster cleavage; RNA array
In short: as §1

glucosamine-6-phosphate [4] = variants of: B1; assay: self-cleavage kobs at 2500 uM GlcN6P; higher = faster cleavage; RNA array
In short: as §1

glucosamine-6-phosphate [5] = variants of: B1; assay: self-cleavage kobs at 10000 uM GlcN6P; higher = faster cleavage; RNA array
In short: as §1

glucosamine-6-phosphate [6] = variants of: B1; assay: self-cleavage kobs at 160 uM GlcN6P; higher = faster cleavage; RNA array
In short: as §1

glucosamine-6-phosphate [7] = variants of: B1; assay: self-cleavage kobs at 40 uM GlcN6P; higher = faster cleavage; RNA array
In short: as §1

## A52U C70U
glucosamine-6-phosphate [1]
  kcat: 0.00063 ± 0.0001 s⁻¹
glucosamine-6-phosphate [2]
  KM: 3490 ± 1100 µM
glucosamine-6-phosphate [3]
  self-cleavage kobs at 640 uM GlcN6P: 0.000122 ± 2e-05 s⁻¹
glucosamine-6-phosphate [4]
  self-cleavage kobs at 2500 uM GlcN6P: 0.000228 ± 3.4e-05 s⁻¹
glucosamine-6-phosphate [5]
  self-cleavage kobs at 10000 uM GlcN6P: 0.000483 ± 4.7e-05 s⁻¹

## G38U A39G C50G
glucosamine-6-phosphate [1]
  kcat: 3.57e-05 ± 8.1e-06 s⁻¹

## A48U U54A
glucosamine-6-phosphate [1]
  kcat: 0.000682 ± 2.5e-05 s⁻¹
glucosamine-6-phosphate [2]
  KM: 3130 ± 210 µM
glucosamine-6-phosphate [6]
  self-cleavage kobs at 160 uM GlcN6P: 3.6e-05 ± 1.3e-05 s⁻¹
glucosamine-6-phosphate [3]
  self-cleavage kobs at 640 uM GlcN6P: 0.000113 ± 2.8e-05 s⁻¹
glucosamine-6-phosphate [4]
  self-cleavage kobs at 2500 uM GlcN6P: 0.00029 ± 7.8e-05 s⁻¹
glucosamine-6-phosphate [5]
  self-cleavage kobs at 10000 uM GlcN6P: 0.000524 ± 7.9e-05 s⁻¹

## A15G G59U C67U
glucosamine-6-phosphate [1]
  kcat: 5.74e-05 ± 6.3e-06 s⁻¹
glucosamine-6-phosphate [2]
  KM: 2230 ± 1000 µM
glucosamine-6-phosphate [5]
  self-cleavage kobs at 10000 uM GlcN6P: 4.69e-05 ± 1.5e-05 s⁻¹

## A6C C67U
glucosamine-6-phosphate [1]
  kcat: 2.53e-05 ± 7.4e-07 s⁻¹
glucosamine-6-phosphate [2]
  KM: 660 ± 160 µM
glucosamine-6-phosphate [7]
  self-cleavage kobs at 40 uM GlcN6P: < 1e-05 s⁻¹
glucosamine-6-phosphate [6]
  self-cleavage kobs at 160 uM GlcN6P: < 1e-05 s⁻¹
glucosamine-6-phosphate [5]
  self-cleavage kobs at 10000 uM GlcN6P: 2.36e-05 ± 7.4e-06 s⁻¹

## A15U U55A
glucosamine-6-phosphate [1]
  kcat: 0.00715 ± 0.0012 s⁻¹
glucosamine-6-phosphate [2]
  KM: 2060 ± 490 µM
glucosamine-6-phosphate [7]
  self-cleavage kobs at 40 uM GlcN6P: 0.000164 ± 1.8e-05 s⁻¹
glucosamine-6-phosphate [6]
  self-cleavage kobs at 160 uM GlcN6P: 0.000472 ± 5.3e-05 s⁻¹
glucosamine-6-phosphate [3]
  self-cleavage kobs at 640 uM GlcN6P: 0.00147 ± 0.00021 s⁻¹
glucosamine-6-phosphate [4]
  self-cleavage kobs at 2500 uM GlcN6P: 0.00588 ± 0.0011 s⁻¹
glucosamine-6-phosphate [5]
  self-cleavage kobs at 10000 uM GlcN6P: 0.00586 ± 0.00053 s⁻¹

## U45G C70A
glucosamine-6-phosphate [1]
  kcat: 0.000251 ± 5.4e-05 s⁻¹
glucosamine-6-phosphate [3]
  self-cleavage kobs at 640 uM GlcN6P: 0.000111 ± 2.5e-05 s⁻¹
glucosamine-6-phosphate [4]
  self-cleavage kobs at 2500 uM GlcN6P: 0.000364 ± 0.00011 s⁻¹
glucosamine-6-phosphate [5]
  self-cleavage kobs at 10000 uM GlcN6P: 0.000215 ± 4.3e-05 s⁻¹

## G38U C67G
glucosamine-6-phosphate [1]
  kcat: 1.53e-05 ± 7.3e-06 s⁻¹

## G40U U47C
glucosamine-6-phosphate [1]
  kcat: 0.00133 ± 0.00022 s⁻¹
glucosamine-6-phosphate [2]
  KM: 2010 ± 550 µM
glucosamine-6-phosphate [7]
  self-cleavage kobs at 40 uM GlcN6P: 3.24e-05 ± 8.9e-06 s⁻¹
glucosamine-6-phosphate [6]
  self-cleavage kobs at 160 uM GlcN6P: 0.000104 ± 2.3e-05 s⁻¹
glucosamine-6-phosphate [3]
  self-cleavage kobs at 640 uM GlcN6P: 0.000287 ± 3.6e-05 s⁻¹
glucosamine-6-phosphate [4]
  self-cleavage kobs at 2500 uM GlcN6P: 0.000958 ± 0.00014 s⁻¹
glucosamine-6-phosphate [5]
  self-cleavage kobs at 10000 uM GlcN6P: 0.00106 ± 0.00013 s⁻¹

## C11U G29A
glucosamine-6-phosphate [1]
  kcat: 0.000628 ± 0.00013 s⁻¹
glucosamine-6-phosphate [2]
  KM: 4190 ± 1400 µM
glucosamine-6-phosphate [3]
  self-cleavage kobs at 640 uM GlcN6P: 9.17e-05 ± 1.1e-05 s⁻¹
glucosamine-6-phosphate [4]
  self-cleavage kobs at 2500 uM GlcN6P: 0.000194 ± 3e-05 s⁻¹
glucosamine-6-phosphate [5]
  self-cleavage kobs at 10000 uM GlcN6P: 0.000474 ± 5.6e-05 s⁻¹

## A15U C16G C50G A52G
glucosamine-6-phosphate [1]
  kcat: 1.88e-05 ± 5.2e-06 s⁻¹

## A48G C68U
glucosamine-6-phosphate [1]
  kcat: 0.000161 ± 4.8e-05 s⁻¹
glucosamine-6-phosphate [6]
  self-cleavage kobs at 160 uM GlcN6P: < 1e-05 s⁻¹
glucosamine-6-phosphate [5]
  self-cleavage kobs at 10000 uM GlcN6P: 4.18e-05 ± 8.3e-06 s⁻¹

## G37A A42G
glucosamine-6-phosphate [1]
  kcat: 0.00683 ± 0.0013 s⁻¹
glucosamine-6-phosphate [2]
  KM: 3670 ± 920 µM
glucosamine-6-phosphate [7]
  self-cleavage kobs at 40 uM GlcN6P: 8.75e-05 ± 1.5e-05 s⁻¹
glucosamine-6-phosphate [6]
  self-cleavage kobs at 160 uM GlcN6P: 0.000301 ± 8.8e-05 s⁻¹
glucosamine-6-phosphate [3]
  self-cleavage kobs at 640 uM GlcN6P: 0.000936 ± 0.00014 s⁻¹
glucosamine-6-phosphate [4]
  self-cleavage kobs at 2500 uM GlcN6P: 0.00251 ± 0.00044 s⁻¹
glucosamine-6-phosphate [5]
  self-cleavage kobs at 10000 uM GlcN6P: 0.00549 ± 0.00094 s⁻¹

## C11U C61U
glucosamine-6-phosphate [1]
  kcat: < 1e-05 s⁻¹
glucosamine-6-phosphate [2]
  KM: 122 ± 8.2 µM
glucosamine-6-phosphate [7]
  self-cleavage kobs at 40 uM GlcN6P: < 1e-05 s⁻¹
glucosamine-6-phosphate [3]
  self-cleavage kobs at 640 uM GlcN6P: < 1e-05 s⁻¹
glucosamine-6-phosphate [5]
  self-cleavage kobs at 10000 uM GlcN6P: < 1e-05 s⁻¹

## G43U A53C
glucosamine-6-phosphate [1]
  kcat: 2.22e-05 ± 5.7e-07 s⁻¹
glucosamine-6-phosphate [2]
  KM: 7310 ± 400 µM

## U45A C71A
glucosamine-6-phosphate [1]
  kcat: 0.00337 ± 0.0013 s⁻¹
glucosamine-6-phosphate [7]
  self-cleavage kobs at 40 uM GlcN6P: 0.00019 ± 3.7e-05 s⁻¹
glucosamine-6-phosphate [6]
  self-cleavage kobs at 160 uM GlcN6P: 0.000518 ± 0.00016 s⁻¹
glucosamine-6-phosphate [3]
  self-cleavage kobs at 640 uM GlcN6P: 0.000907 ± 0.00022 s⁻¹
glucosamine-6-phosphate [4]
  self-cleavage kobs at 2500 uM GlcN6P: 0.00202 ± 0.00085 s⁻¹
glucosamine-6-phosphate [5]
  self-cleavage kobs at 10000 uM GlcN6P: 0.00396 ± 0.00073 s⁻¹

## G13U U46G
glucosamine-6-phosphate [1]
  kcat: 0.000174 ± 4.9e-06 s⁻¹
glucosamine-6-phosphate [2]
  KM: 1460 ± 120 µM
glucosamine-6-phosphate [3]
  self-cleavage kobs at 640 uM GlcN6P: 5.44e-05 ± 1.5e-05 s⁻¹
glucosamine-6-phosphate [4]
  self-cleavage kobs at 2500 uM GlcN6P: 0.000107 ± 2.4e-05 s⁻¹
glucosamine-6-phosphate [5]
  self-cleavage kobs at 10000 uM GlcN6P: 0.000153 ± 2.1e-05 s⁻¹
